Measured values taken from PMC5556061 (Scientific Reports, 2017).
Positions count from the first letter of the chain named.

Legend:
[1] = system: CAS SH3 Y12E; experiment: Phage ELISA with CAS SH3 variants; type: binding, mouse; conditions: immobilized 5 µg of CAS SH3 variant per well, three independent experiments
Procedure: The relative binding affinities of individual phage clones to GST-CAS SH3 were assessed by ELISA according to the manufacturer’s protocol (Ph.D.™ −12 Phage Display Peptide Library Kit, New England Biolabs). Briefly, a dilution series of phage stocks was prepared in TBS with 0.5% Tween 20 (TBST, 10^15−2 × 10^6 pfu/ml), and phages were scored for their ability to bind immobilized GST-CAS SH3 domain (100 µl of 50 µg/ml per well) in 96-well plate. Bound phages were detected with anti-M13 antibody conjugated to HRP and quantified in a colorimetric assay (ABTS at 415 nm, Invitrogen) using Varioskan Flash (Thermo Scientific). Relative binding affinities (the affinity of the phage clone with the highest affinity was arbitrarily set to 1) were evaluated based on the number of phages required to bind the immobilized GST-fused CAS SH3 domain at 50% saturation. Curves were fitted with the standard sigmoidal function in Sigmaplot. The clones with highest affinities were selected for further analyses (e.g., binding to immobilized 5 µg of CAS SH3 variants per well).

[2] = system: Src kinase; experiment: Co-immunoprecipitation of FAK and Vinculin with CAS after Src inhibition; type: cell-based, mouse; conditions: MEFs SrcF treated with 5 µM Saracatinib for 3 h, Vinculin immunoblot
Procedure: Immunoprecipitations from lysates of MEFs or MEFs transformed with SrcF were performed similarly as described above. To immunoprecipitate CAS proteins, protein-A sepharose (GE-Healthcare) and anti-CAS antibody (BD Transduction Laboratories) were used. […] After transferring proteins onto nitrocellulose membrane and blocking, the membranes were incubated with anti CAS, Src, FAK, Vinculin, CAS Tyr12, CAS pTyr165, Src pTyr418 or actin antibody.

[3] = system: GST-fused CAS SH3 domain; experiment: Competitive displacement phage ELISA (EC50); type: binding, mouse
Procedure: The EC50 for phage clone 1 ([…], highest affinity) was determined using competitive displacement of the phage bound (5.5·10^10 pfu) to immobilized GST-fused CAS SH3 domain (100 µl of 20 µg/ml per well to yield the best specificity/sensitivity ratio) by serial additions of free GST-fused CAS SH3 domain in TBST (1 µg/ml–800 µg/ml) as previously described. The amount of bound phages was assessed with anti-M13 antibody conjugated to HRP and quantified in a colorimetric assay. Displacement curves were fitted to standard sigmoidal function and EC50 was calculated in Sigmaplot version 11 software using a four-parameter logistic equation. Statistical significance (*p < 0.05, **p < 0.01, ***p < 0.001) was determined on log-transformed data by one-way ANOVA followed by Tukey’s post-hoc test.

[4] = molecular target: T1, CAS SH3 domain (GST tag removed, for NMR) (mouse, UniProt Q61140 3-65); experiment: NMR solution structure; chimeras: peptide fused through a Gly/Ser-rich linker to the C-terminus of the CAS SH3 domain; 450 µM; 25 °C; 25 mM sodium phosphate pH 7.5, 100 mM NaCl, 1 mM TCEP; conditions: both partners purified
T1 construct: Crk-associated substrate (CAS), mouse, SH3 domain; Two additional residues remained at the N-terminus after thrombin cleavage; In the two chimeras this domain carried, on the same chain, the spacer SGGSGSG and the peptide m17 or m18 at its C-terminus; also called free CAS SH3 domain; source: E. coli BL21 (DE3), 15N/13C-labelled, purified (glutathione agarose, thrombin cleavage, size exclusion); …
T1 sequence (looked up): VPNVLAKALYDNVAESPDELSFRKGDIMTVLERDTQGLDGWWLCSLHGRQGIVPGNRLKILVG

[5] = molecular target: T2, CAS SH3 (as used for ITC) (mouse, UniProt Q61140 3-65); experiment: ITC; 660 µM peptide injected into 60 µM CAS SH3; 25 °C; PBS pH 7.5, 0.05% 2-mercaptoethanol; conditions: both partners purified
T2 construct: Crk-associated substrate (CAS), mouse, SH3 domain; probably the same protein as m2; source: E. coli BL21 (DE3), purified
T2 sequence (looked up): T1 sequence (looked up)

[6] = molecular target: T3, GST-fused CAS SH3 domain Y12F (mouse, UniProt Q61140 3-65, Y12F); experiment: ELISA; phage ELISA: GST-CAS SH3 domain or its variants immobilised in 96-well plate (100 µl of 50 µg/ml; 5 µg per well), dilution series of phage stocks in TBS with 0.5% Tween 20, anti-M13-HRP; relative affinities from phage number at 50% saturation; conditions: one partner purified
T3 construct: Crk-associated substrate (CAS), mouse, SH3 domain with Y12F; also called CAS SH3 Y12F mutant; source: E. coli BL21 (DE3), pGEX-2TK, purified (glutathione agarose); not shown: GST, N-terminal, kept
T3 sequence (looked up): T1 sequence (looked up) with Y10F

[7] = molecular target: T4, phage-displayed peptide clone 1 (FHAPPSKPPLPK); experiment: ELISA; competitive displacement of phage clone 1 (5.5·10^10 pfu) bound to immobilised GST-CAS SH3 (100 µl of 20 µg/ml per well) by free GST-CAS SH3 in TBST (1-800 µg/ml); anti-M13-HRP; conditions: one partner purified
T4 construct: 12-residue peptide selected from a degenerate library; also called phage clone 1; source: M13 phage stock (Ph.D.-12 Phage Display Peptide Library, New England Biolabs), selected by panning
T4 peptide: FHAPPSKPPLPK

## TMTPPPKPPRLI [clone 10]
[1]
  effect of Y12E mutation on ligand binding: complete disruption of ligand binding

## AHTPPPKPTRPP [clone 16]
[1]
  effect of Y12E mutation on ligand binding: complete disruption of ligand binding

## CN1CCN(CCOc2cc(OC3CCOCC3)c3c(Nc4c(Cl)ccc5c4OCO5)ncnc3c2)CC1 [Saracatinib]
[2]
  binding of CAS to Vinculin: restored the binding of CAS to Vinculin to a similar level as in MEFs

## FHAPPSKPPLPK [clone 1]
[3]; EC50 of clone 1 compared with previously reported value
  fold higher affinity than reported for CAS SH3 with FAK-derived peptide: ~6 fold
[3]; displacement of bound phage (5.5·10^10 pfu) from immobilized GST-CAS SH3 (100 µl of 20 µg/ml per well) by free GST-fused CAS SH3 (1-800 µg/ml) in TBST, anti-M13-HRP, colorimetric, seven independent experiments, read-out: EC50 for clone 1 binding
  EC50: 0.363 µM

B1: PTP-PEST-derived peptide, residues 327-343 (peptide part of the CAS-PTP-PEST chimera) (peptide, UniProt P35831 327-343, looked up)
peptide: EKQDSPPPKPPRTRSCL
notes: PTP-PEST, mouse, residues 327-343; Stood on one chain with the CAS SH3 domain: SH3 domain, spacer SGGSGSG, peptide; also called PTP-PEST peptide; PTP-PEST extended peptide; source: E. coli BL21 (DE3), as the C-terminal part of the CAS SH3 chimera, purified
[4]
  binding result: binds

## PPPKPPRL (source: synthetic peptide) [synthetic octapeptide PPPKPPRL]
[5]
  Kd: 5.29 µM
  stoichiometry N: 1

## PPSKPPRP (source: synthetic peptide) [synthetic octapeptide PPSKPPRP]
[5]
  Kd: 15.3 µM
  stoichiometry N: 1

## PPSKPPLP (source: synthetic peptide) [synthetic octapeptide PPSKPPLP]
[5]
  Kd: 46.6 µM
  stoichiometry N: 1

B2: synthetic octapeptide APPKPPLP (binding site of CAS on Vinculin) (peptide)
peptide: APPKPPLP
notes: also called Vinculin core peptide (859-866); source: synthetic peptide
[5]
  Kd: 15.7 µM
  stoichiometry N: 1

B3: phage-displayed peptide clone 16 (AHTPPPKPTRPP) (peptide)
peptide: AHTPPPKPTRPP
notes: 12-residue peptide selected from a degenerate library; also called phage clone 16; source: M13 phage stock (Ph.D.-12 Phage Display Peptide Library, New England Biolabs), selected by panning
[6]
  fold decrease in affinity against CAS WT: 37 fold

B4: phage-displayed peptide clone 10 (TMTPPPKPPRLI) (peptide)
peptide: TMTPPPKPPRLI
notes: 12-residue peptide selected from a degenerate library; also called phage clone 10; source: M13 phage stock (Ph.D.-12 Phage Display Peptide Library, New England Biolabs), selected by panning
[6]
  fold decrease in affinity against CAS WT: 2 fold

B5: Vinculin-derived peptide, residues 854-870 (peptide part of the CAS-Vinculin chimera) (peptide, UniProt Q64727 854-870, looked up)
peptide: LTDELAPPKPPLPEGEV
notes: Vinculin, mouse, residues 854-870; Stood on one chain with the CAS SH3 domain: SH3 domain, spacer SGGSGSG, peptide; also called Vinculin peptide; Vinculin extended peptide; source: E. coli BL21 (DE3), as the C-terminal part of the CAS SH3 chimera, purified
[4]
  binding result: binds

B6: GST-fused CAS SH3 domain (domain or fragment, mouse, UniProt Q61140 3-65, looked up)
chain: T1 sequence (looked up)
notes: Crk-associated substrate (CAS), mouse, SH3 domain; also called GST-CAS SH3; GST-SH3; source: E. coli BL21 (DE3), pGEX-2TK, purified (glutathione agarose); not shown: GST, N-terminal, kept
[7]
  EC50: 0.363 µM
